Source: patent US20150202161A1, “PROCESS FOR MANUFACTURING DRUG DELIVERY FORMULATIONS” (O-RAY PHARMA, INC., priority 2012, published 2015)

Assay: In vitro release (dissolution) of Infliximab from packed silicone cup and of lyophilized powder
Format: physicochemical
Conditions: release into 600 μl water with stirring at room temperature (23° C.); UV absorption at 280 nm
Description: A solid drug pellet (FIG. 4, 402.) was created by mixing 75% infliximab with 25% hydroxy propyl methyl cellulose (HPMC). This solid pellet was packed into a silicone cup (FIG. 1, 101.). The drug can only release from one end of the silicone and this end is subsequently coated with a controlled release polymer formulation of 5 μl of 10% polylactic acid (FIG. 1, 107.) to control its release. Dissolution studies were performed with lyophilized infliximab powder and infliximab packed extended release formulations. For each sample, release into 600 μl water was carried out with stirring at room temperature (23° C.). Aliquots were removed at timed intervals and analyzed with UV absorption spectroscopy at 280 nm using a Spectramax Plus384 96 well plate reader.

## Lyophilized infliximab powder: TNF-α inhibitor infliximab as unformulated lyophilized powder, comparator in dissolution study
  release upon addition to solvent: releases almost immediately
